Reference: the supplement of paper PMC9112550, “Optimization of the antimicrobial peptide Bac7 by deep mutational scanning” (BMC Biology, 2022)

Tested on: Escherichia coli TOP10
Assay: shrunken log2 fold change of peptide-encoding DNA abundance (4.5 h post-induction vs induction); higher = less antimicrobial activity (less host growth inhibition)
Details: time post-induction: 4.5 h; library: site-saturation at positions 5, 18, 19, 20
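Also: peptides expressed intracellularly from a pBAD plasmid library in pooled LB shake-flask culture, induced with 0.3% L-arabinose, DNA abundance read by NGS, three biological replicates, DESeq2 with apeglm shrinkage.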

Sequence	shrunken log2 fold change
RRIRCRPPRLPRPRPRPERIPRP	0.164
RRIRPRPPRLPRPRPRPQNMPRP	-0.358
RRIRERPPRLPRPRPRPDWKPRP	-0.0141
RRIRERPPRLPRPRPRPCPPPRP	-0.0496
RRIRERPPRLPRPRPRPCVIPRP	-0.0272
RRIRWRPPRLPRPRPRPCTRPRP	-0.161
RRIRLRPPRLPRPRPRPFLQPRP	-0.102
RRIRARPPRLPRPRPRPVTGPRP	0.301
RRIRHRPPRLPRPRPRPTGVPRP	0.18
RRIRFRPPRLPRPRPRPCWRPRP	-0.199
RRIRNRPPRLPRPRPRPVGQPRP	-0.185
RRIRWRPPRLPRPRPRPNPAPRP	0.098
RRIRVRPPRLPRPRPRPALNPRP	-0.142
RRIRWRPPRLPRPRPRPDINPRP	0.235
RRIRIRPPRLPRPRPRPSSMPRP	-0.432
RRIRPRPPRLPRPRPRPIIMPRP	0.195
RRIRIRPPRLPRPRPRPCTRPRP	0.0316
RRIRRRPPRLPRPRPRPHTAPRP	0.313
RRIRDRPPRLPRPRPRPKPFPRP	0.013
RRIRGRPPRLPRPRPRPQPKPRP	0.884
RRIRMRPPRLPRPRPRPWIVPRP	0.0842
RRIRRRPPRLPRPRPRPQTRPRP	0.511
RRIRCRPPRLPRPRPRPIDWPRP	0.0664
RRIRLRPPRLPRPRPRPQCVPRP	0.0615
RRIRCRPPRLPRPRPRPSFNPRP	-0.882

Sequence	shrunken log2 fold change
RRIRGRPPRLPRPRPRPNRAPRP	0.43
RRIRQRPPRLPRPRPRPEKLPRP	-0.12
RRIRARPPRLPRPRPRPYPNPRP	-0.257
RRIRERPPRLPRPRPRPWDSPRP	0.0192
RRIRSRPPRLPRPRPRPTWVPRP	0.0759
RRIRYRPPRLPRPRPRPHRDPRP	-0.288
RRIRIRPPRLPRPRPRPDETPRP	-0.183
RRIRRRPPRLPRPRPRPKHQPRP	1.57
RRIRHRPPRLPRPRPRPIMIPRP	-0.192
RRIRCRPPRLPRPRPRPPPHPRP	1.3
RRIRPRPPRLPRPRPRPCKNPRP	-0.328
RRIRSRPPRLPRPRPRPKWAPRP	-0.117
RRIRSRPPRLPRPRPRPLMVPRP	0.134
RRIRTRPPRLPRPRPRPFFRPRP	0.234
RRIRHRPPRLPRPRPRPINLPRP	-0.0477
RRIRFRPPRLPRPRPRPGTMPRP	-0.494
RRIRCRPPRLPRPRPRPYYPPRP	-1.27
RRIRDRPPRLPRPRPRPHEMPRP	-0.0853
RRIRPRPPRLPRPRPRPIKCPRP	-0.358
RRIRGRPPRLPRPRPRPFFNPRP	0.186
RRIRSRPPRLPRPRPRPWLAPRP	0.166
RRIRDRPPRLPRPRPRPIRAPRP	0.0872
RRIRFRPPRLPRPRPRPPCAPRP	0.576
RRIRTRPPRLPRPRPRPIKLPRP	-0.412
RRIRARPPRLPRPRPRPDGPPRP	0.455

Sequence	shrunken log2 fold change
RRIRPRPPRLPRPRPRPDATPRP	0.625
RRIRWRPPRLPRPRPRPGDWPRP	0.655
RRIRWRPPRLPRPRPRPWAGPRP	0.167
RRIRLRPPRLPRPRPRPYCGPRP	-0.0687
RRIRYRPPRLPRPRPRPNKCPRP	-0.269
RRIRMRPPRLPRPRPRPIDLPRP	-0.00804
RRIRLRPPRLPRPRPRPHKVPRP	-0.18
RRIRSRPPRLPRPRPRPQAKPRP	0.0225
RRIRARPPRLPRPRPRPGYVPRP	-0.0339
RRIRVRPPRLPRPRPRPGDYPRP	-0.0161
RRIRCRPPRLPRPRPRPQSDPRP	-0.69
RRIRARPPRLPRPRPRPWPPPRP	0.887
RRIRFRPPRLPRPRPRPVRPPRP	1.18
RRIRERPPRLPRPRPRPFVVPRP	-0.0043
RRIRRRPPRLPRPRPRPKPQPRP	0.403
RRIRLRPPRLPRPRPRPGQQPRP	-0.0555
RRIRIRPPRLPRPRPRPINSPRP	-0.619
RRIRPRPPRLPRPRPRPTKKPRP	0.0418
RRIRERPPRLPRPRPRPQTDPRP	-0.323
RRIRMRPPRLPRPRPRPYVQPRP	0.056
RRIRHRPPRLPRPRPRPVYCPRP	-0.49
RRIRKRPPRLPRPRPRPQIPPRP	-0.0346
RRIRDRPPRLPRPRPRPSSAPRP	0.0666
RRIRNRPPRLPRPRPRPDFCPRP	0.0953
RRIRSRPPRLPRPRPRPPMRPRP	1.02

Sequence	shrunken log2 fold change
RRIRDRPPRLPRPRPRPLGHPRP	0.0421
RRIRTRPPRLPRPRPRPWRFPRP	-0.0156
RRIRVRPPRLPRPRPRPAAWPRP	0.136
RRIRGRPPRLPRPRPRPLGVPRP	0.835
RRIRGRPPRLPRPRPRPPLQPRP	0.641
RRIRSRPPRLPRPRPRPHWQPRP	-0.0893
RRIRTRPPRLPRPRPRPCTYPRP	-0.326
RRIRLRPPRLPRPRPRPWFKPRP	-0.86
RRIRSRPPRLPRPRPRPAYPPRP	0.0454
RRIRRRPPRLPRPRPRPTEWPRP	0.446
RRIRDRPPRLPRPRPRPKEQPRP	0.0816
RRIRIRPPRLPRPRPRPVIMPRP	-0.334
RRIRVRPPRLPRPRPRPYTTPRP	-0.721
RRIRLRPPRLPRPRPRPMCHPRP	-0.0587
RRIRWRPPRLPRPRPRPKHRPRP	0.149
RRIRHRPPRLPRPRPRPDYAPRP	-0.171
RRIRWRPPRLPRPRPRPRMKPRP	0.158
RRIRHRPPRLPRPRPRPQKMPRP	-0.132
RRIRYRPPRLPRPRPRPNEYPRP	-0.519
RRIRRRPPRLPRPRPRPFRFPRP	0.506
RRIRNRPPRLPRPRPRPPRLPRP	0.514
RRIRTRPPRLPRPRPRPWRKPRP	-0.262
RRIRGRPPRLPRPRPRPARAPRP	1.03
RRIRARPPRLPRPRPRPVERPRP	0.732
RRIRVRPPRLPRPRPRPMELPRP	-0.135

Sequence	shrunken log2 fold change
RRIRYRPPRLPRPRPRPSRLPRP	-0.114
RRIRTRPPRLPRPRPRPKPGPRP	0.299
RRIRGRPPRLPRPRPRPMSKPRP	0.269
RRIRTRPPRLPRPRPRPFENPRP	-0.0132
RRIRGRPPRLPRPRPRPQWRPRP	0.612
RRIRRRPPRLPRPRPRPVGRPRP	0.472
RRIRYRPPRLPRPRPRPEMIPRP	0.0135
RRIRVRPPRLPRPRPRPGNQPRP	-0.284
RRIRCRPPRLPRPRPRPIFRPRP	-0.013
RRIRQRPPRLPRPRPRPFLWPRP	-0.0488
RRIRPRPPRLPRPRPRPYNVPRP	-0.0809
RRIRRRPPRLPRPRPRPWPKPRP	0.13
RRIRNRPPRLPRPRPRPWKGPRP	-0.0198
RRIRVRPPRLPRPRPRPDLYPRP	-0.35
RRIRDRPPRLPRPRPRPSWRPRP	0.0848
RRIRWRPPRLPRPRPRPFPIPRP	-0.169
RRIRGRPPRLPRPRPRPTEGPRP	0.795
RRIRHRPPRLPRPRPRPATLPRP	-0.24
RRIRPRPPRLPRPRPRPAGQPRP	-0.0709
RRIRLRPPRLPRPRPRPYHMPRP	-0.146
RRIRKRPPRLPRPRPRPPEFPRP	0.0984
RRIRWRPPRLPRPRPRPGLKPRP	-0.109
RRIRQRPPRLPRPRPRPYGAPRP	-0.0876
RRIRERPPRLPRPRPRPQNGPRP	-0.0634
RRIRHRPPRLPRPRPRPTQTPRP	-0.0128

Sequence	shrunken log2 fold change
RRIRWRPPRLPRPRPRPNQWPRP	0.223
RRIRTRPPRLPRPRPRPHHCPRP	-0.12
RRIRYRPPRLPRPRPRPPEFPRP	0.00678
RRIRSRPPRLPRPRPRPGKDPRP	0.099
RRIRTRPPRLPRPRPRPGGLPRP	-0.0407
RRIRMRPPRLPRPRPRPADGPRP	0.19
RRIRPRPPRLPRPRPRPQDIPRP	-0.0806
RRIRGRPPRLPRPRPRPRCHPRP	0.564
RRIRERPPRLPRPRPRPCVNPRP	-0.182
RRIRWRPPRLPRPRPRPQIRPRP	-0.0767
RRIRERPPRLPRPRPRPQYCPRP	-0.0302
RRIRRRPPRLPRPRPRPDRCPRP	0.00426
RRIRPRPPRLPRPRPRPPDMPRP	0.507
RRIRARPPRLPRPRPRPYGRPRP	0.0766
RRIRNRPPRLPRPRPRPFMFPRP	-0.399
RRIRCRPPRLPRPRPRPLIWPRP	-0.177
RRIRIRPPRLPRPRPRPGPVPRP	-0.0724
RRIRYRPPRLPRPRPRPGEAPRP	0.124
RRIRWRPPRLPRPRPRPNYLPRP	-1
RRIRMRPPRLPRPRPRPWNFPRP	-0.0756
RRIRLRPPRLPRPRPRPTEKPRP	-0.0343
RRIRFRPPRLPRPRPRPCWMPRP	-0.0459
RRIRKRPPRLPRPRPRPGVYPRP	2.46
RRIRRRPPRLPRPRPRPFQFPRP	-0.0742
RRIRHRPPRLPRPRPRPEHSPRP	-0.179
